Test results: CN105713087A (BEIJING HEALTH GUARDS BIOTECHNOLOGY CO LTD, dated 2016)

How the values were obtained:
[1] = target: T1, HPV-16 L1 VLP (human papillomavirus type 16, UniProt P03101 1-505); assay: indirect ELISA on coated VLP
T1 construct: also called HPV16VLP
T1 sequence: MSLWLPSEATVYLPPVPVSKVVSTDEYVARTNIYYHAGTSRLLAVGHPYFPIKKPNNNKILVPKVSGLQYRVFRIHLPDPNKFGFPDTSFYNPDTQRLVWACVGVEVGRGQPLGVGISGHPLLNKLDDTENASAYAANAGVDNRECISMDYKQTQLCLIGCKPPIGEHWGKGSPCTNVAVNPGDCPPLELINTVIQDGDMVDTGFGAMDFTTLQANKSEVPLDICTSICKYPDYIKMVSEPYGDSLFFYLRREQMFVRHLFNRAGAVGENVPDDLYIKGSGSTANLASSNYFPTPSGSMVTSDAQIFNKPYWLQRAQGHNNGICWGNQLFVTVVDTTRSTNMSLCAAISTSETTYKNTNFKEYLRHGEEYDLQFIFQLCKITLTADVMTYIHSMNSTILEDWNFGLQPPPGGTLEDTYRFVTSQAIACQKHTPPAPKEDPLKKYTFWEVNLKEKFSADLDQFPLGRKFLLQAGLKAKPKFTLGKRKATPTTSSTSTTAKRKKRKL

[2] = target: T2, HPV-18 L1 VLP (human papillomavirus type 18, UniProt P06794 62-568); assay: indirect ELISA on coated VLP
T2 construct: also called HPV18VLP
T2 sequence: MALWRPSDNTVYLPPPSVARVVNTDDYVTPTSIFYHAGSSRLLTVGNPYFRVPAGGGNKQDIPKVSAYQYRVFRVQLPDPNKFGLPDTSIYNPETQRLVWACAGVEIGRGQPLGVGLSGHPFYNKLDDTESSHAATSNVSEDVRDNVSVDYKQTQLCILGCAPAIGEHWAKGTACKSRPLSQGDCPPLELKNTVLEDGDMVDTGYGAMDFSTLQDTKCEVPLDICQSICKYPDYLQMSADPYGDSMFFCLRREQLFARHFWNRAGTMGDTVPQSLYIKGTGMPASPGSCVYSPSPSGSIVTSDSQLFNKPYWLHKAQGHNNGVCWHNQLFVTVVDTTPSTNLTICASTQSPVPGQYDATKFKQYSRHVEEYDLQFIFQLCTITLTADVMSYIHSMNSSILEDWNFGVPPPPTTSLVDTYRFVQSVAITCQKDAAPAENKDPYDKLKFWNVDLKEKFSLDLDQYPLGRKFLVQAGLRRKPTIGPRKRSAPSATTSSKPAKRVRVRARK

[3] = target: T3, HPV11 VLP (human papillomavirus type 11, UniProt P04012 1-501); assay: SPR (BIACORE 3000)
T3 sequence: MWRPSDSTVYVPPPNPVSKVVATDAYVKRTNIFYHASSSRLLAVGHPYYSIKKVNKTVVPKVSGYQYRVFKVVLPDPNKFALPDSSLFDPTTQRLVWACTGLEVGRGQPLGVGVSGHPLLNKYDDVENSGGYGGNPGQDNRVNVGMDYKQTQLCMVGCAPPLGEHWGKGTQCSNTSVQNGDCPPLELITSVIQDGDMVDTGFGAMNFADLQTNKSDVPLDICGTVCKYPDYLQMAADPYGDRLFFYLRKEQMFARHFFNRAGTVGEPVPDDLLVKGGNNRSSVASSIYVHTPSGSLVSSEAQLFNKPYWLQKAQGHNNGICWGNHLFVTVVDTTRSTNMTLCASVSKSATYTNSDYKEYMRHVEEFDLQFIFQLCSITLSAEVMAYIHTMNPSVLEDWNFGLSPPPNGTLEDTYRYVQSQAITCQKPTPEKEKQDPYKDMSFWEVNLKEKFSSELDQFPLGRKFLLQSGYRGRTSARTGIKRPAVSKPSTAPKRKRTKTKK

[4] = target: T4, HPV6 VLP (human papillomavirus type 6, UniProt P69899 1-500); assay: SPR (BIACORE 3000)
T4 sequence: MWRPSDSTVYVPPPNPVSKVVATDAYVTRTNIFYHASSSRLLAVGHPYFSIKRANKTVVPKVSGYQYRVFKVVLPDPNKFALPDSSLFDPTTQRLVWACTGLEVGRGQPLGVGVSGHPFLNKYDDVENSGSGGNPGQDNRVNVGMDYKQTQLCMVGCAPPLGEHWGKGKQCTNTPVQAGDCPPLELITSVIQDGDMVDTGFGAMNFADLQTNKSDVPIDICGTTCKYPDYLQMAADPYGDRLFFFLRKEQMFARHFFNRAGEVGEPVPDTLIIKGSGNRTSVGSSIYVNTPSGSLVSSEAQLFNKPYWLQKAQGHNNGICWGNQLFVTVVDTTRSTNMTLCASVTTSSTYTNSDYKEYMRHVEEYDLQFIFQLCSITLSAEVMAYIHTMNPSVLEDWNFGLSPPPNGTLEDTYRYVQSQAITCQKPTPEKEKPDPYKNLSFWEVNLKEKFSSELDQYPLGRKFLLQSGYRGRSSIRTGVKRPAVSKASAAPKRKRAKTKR

[5] = target: T5, HPV45 VLP (human papillomavirus type 45, UniProt P36741 27-539); assay: SPR (BIACORE 3000)
T5 sequence: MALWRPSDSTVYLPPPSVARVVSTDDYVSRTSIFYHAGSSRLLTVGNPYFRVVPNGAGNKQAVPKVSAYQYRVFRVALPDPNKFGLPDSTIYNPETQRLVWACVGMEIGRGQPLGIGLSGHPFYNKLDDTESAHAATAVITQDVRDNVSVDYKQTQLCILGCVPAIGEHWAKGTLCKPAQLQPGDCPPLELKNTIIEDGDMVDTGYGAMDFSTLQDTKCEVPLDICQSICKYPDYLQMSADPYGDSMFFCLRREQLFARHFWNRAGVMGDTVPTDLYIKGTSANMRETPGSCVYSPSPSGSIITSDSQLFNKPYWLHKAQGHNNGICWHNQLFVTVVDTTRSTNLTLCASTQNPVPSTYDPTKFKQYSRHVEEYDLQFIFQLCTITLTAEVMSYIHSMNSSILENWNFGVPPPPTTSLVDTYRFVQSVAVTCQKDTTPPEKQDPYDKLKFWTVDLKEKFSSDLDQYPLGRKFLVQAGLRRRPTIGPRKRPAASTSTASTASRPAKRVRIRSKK

[6] = target: T6, HPV31 VLP (human papillomavirus type 31, UniProt P17388 1-504); assay: SPR (BIACORE 3000)
T6 sequence: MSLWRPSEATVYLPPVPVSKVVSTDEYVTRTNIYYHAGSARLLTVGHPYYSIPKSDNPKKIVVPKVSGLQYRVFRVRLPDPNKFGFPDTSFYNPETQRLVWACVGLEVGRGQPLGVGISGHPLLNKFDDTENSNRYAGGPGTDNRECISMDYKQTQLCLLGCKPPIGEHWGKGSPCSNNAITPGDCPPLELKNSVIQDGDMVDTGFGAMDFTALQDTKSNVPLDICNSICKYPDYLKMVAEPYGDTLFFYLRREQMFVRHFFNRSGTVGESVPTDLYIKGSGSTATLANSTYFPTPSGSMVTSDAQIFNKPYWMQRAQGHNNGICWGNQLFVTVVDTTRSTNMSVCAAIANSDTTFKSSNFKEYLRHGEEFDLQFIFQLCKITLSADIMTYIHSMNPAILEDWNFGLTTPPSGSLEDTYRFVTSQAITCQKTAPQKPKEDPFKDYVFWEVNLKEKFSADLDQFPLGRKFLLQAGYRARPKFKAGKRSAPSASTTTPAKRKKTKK

B1: 单克隆抗体2F7 (杂交瘤细胞株2F7, CGMCC No.11295) (antibody, V domains shown)
VH: VQLQQSGPGLVQPSQSLSITCTVSGFSLTSYGVHWVRQSPGKGLEWLGVIWSGGSTDYNAAFISRLSISKDNSKSQVFFKMNSLQANDTAIYYCARRDGNSRYAMDYWGQGTTVTVSS
VL: DIQLTQSPSSMSASLGDRITITCQATQDIVKNLNWYQQKPGKPPSFLIYYATELAEGVPSRFSGSGSGSDYSLTISNLESEDFADYYCLQFYEFPLTFGAGTKLEI
notes: also called 克隆2F7
- binding result [1]: no binding (tested: 0.3μg/ml)
- binding result [2]: no binding (tested: 0.3μg/ml)
- binding result [3]: no binding (tested: 20nmol/L)
- binding result [4]: no binding (tested: 20nmol/L)
- binding result [5]: no binding (tested: 20nmol/L)
- binding result [6]: no binding (tested: 20nmol/L)
